Data taken from PMC9717613.
Where a chain is given by its changes, count along the chain named. Names and notes keep the numbering of the source.

What was measured:
[1] = substrate: Nc1ccccc1C(=O)C[C@H](N)C(=O)O; test: purified protein; format: biochemical, Homo sapiens; conditions: 0-2 mM substrate, 0.10-1.00 uM enzyme
[2] = substrate: Nc1c(O)cccc1C(=O)CC(N)C(=O)O; test: purified protein; conditions: HsKYNase_66; racemic substrate; in D2O-PBS (H2O value only in Figure 1f)

B1: HsKYNase (human kynureninase) (Homo sapiens) (protein)
chain: MEPSSLELPADTVQRIAAELKCHPTDERVALHLDEEDKLRHFRECFYIPKIQDLPPVDLSLVNKDENAIYFLGNSLGLQPKMVKTYLEEELDKWAKIAAYGHEVGKRPWITGDESIVGLMKDIVGANEKEIALMNALTVNLHLLMLSFFKPTPKRYKILLEAKAFPSDHYAIESQLQLHGLNIEESMRMIKPREGEETLRIEDILEVIEKEGDSIAVILFSGVHFYTGQHFNIPAITKAGQAKGCYVGFDLAHAVGNVELYLHDWGVDFACWCSYKYLNAGAGGIAGAFIHEKHAHTIKPALVGWFGHELSTRFKMDNKLQLIPGVCGFRISNPPILLVCSLHASLEIFKQATMKALRKKSVLLTGYLEYLIKHNYGKDKAATKKPVVNIITPSHVEERGCQLTITFSVPNKDVFQELEKRGVVCDKRNPNGIRVAPVPLYNSFHDVYKFTNLLTSILDSAETKN
B1 gave a Km [1] of 1570 µM, a kcat [1] of 0.18 s⁻¹ and a kcat/Km [1] of 110 M⁻¹ s⁻¹.

B2: HsKYNase (human kynureninase) (Homo sapiens; E103Q/F225Y/I331V/I405L/L72N/M189I/N67D/S274G/S408N) (protein)
chain: B1 chain with N67D, L72N, E103Q, M189I, F225Y, S274G, I331V, I405L, S408N
Work on B2 yielded a Km ([1]; HsKYNase_46) of 190 µM, a kcat ([1]; HsKYNase_46) of 0.58 s⁻¹ and a kcat/Km ([1]; HsKYNase_46) of 3100 M⁻¹ s⁻¹.

B3: HsKYNase (human kynureninase) (Homo sapiens; … (protein)
chain: MEPSSLELPADTVQRIAAELKCHPTDERVALHLDEEDKLRHFRECFYIPKIQDLPPVDLSLVNKDEDAIYFNGNSLGLQPKMVKTYLEEELDKWAKIAIYGWFEGDSPWIHYDESIVGLMKDIVGANEKEIVLMNTLTVNLHLLMLSFFKPTPKRYKILLEAKAFPSDHYAIESQLQLHGLNIEESMRIIKPREGEETLRIEDILEVIEKEGDSIAVILFSGIHYYTGQHFNIPAITKAGQAKGCYVGFDLAHAVGNVELYLHDWGVDFACWCGYKYLNSSPGGIAGAFIHEKHAHTIKPALVGWFGHELSTRFKMDNKLQLIPGVCGFRCSTPPILLVCILHASLEIFKQATMKALRKKSVLLTGYLEYLIKHNYGKDKAATKKPVVNIITPSHVEERGCQLTLTFNVPNKDVFQELEKRGVVCDKRNPNGIRVAPVPLYNSFHDVYKFTNLLTSILDSAETKN
For B3, the Km ([1]; HsKYNase_66) was 27 µM, the kcat ([1]; HsKYNase_66) was 1.54 s⁻¹ and the kcat/Km ([1]; HsKYNase_66) was 56000 M⁻¹ s⁻¹. It also gave a Km [2] of 1370 ± 200 µM.

B4: HsKYNase (human kynureninase) (Homo sapiens; … (protein)
chain: B3 chain with A68T, I110L, V132A, I223V, G274N, F306W
In the case of B4, the Km ([1]; HsKYNase_95) is reported as 16 µM, the kcat ([1]; HsKYNase_95) is reported as 0.85 s⁻¹ and the kcat/Km ([1]; HsKYNase_95) is reported as 55000 M⁻¹ s⁻¹.

B5: HsKYNase (human kynureninase) (Homo sapiens; A136T/A99I/E103F/F225Y/H102W/I110M/I331C/I405L/K106E/L72N/M189I/N333T/N67D/R107S/S274G/S341I/S408N/V104E) (protein)
chain: B3 chain with D106E, I110M, H111T, Y112G, V132A, I223V, S280A, S281G, P282A
Work on B5 yielded a Km ([1]; HsKYNase_64) of 36 µM, a kcat ([1]; HsKYNase_64) of 0.24 s⁻¹ and a kcat/Km ([1]; HsKYNase_64) of 6700 M⁻¹ s⁻¹.
